Assay results reported in US20240247069A1 (Regeneron, published 2024).

What was measured:
human FGFR3b-ecto.mmH = biological target: T1, human FGFR3b-ecto.mmH (human, UniProt P22607 23-806); assay: Biacore SPR, 25 C, mmh-tagged FGFR3
T1 construct: also called hFGFR3b (mmh); hFGFR3b-mmh; not shown: mmh tag

mouse FGFR3b-ecto.mmH = biological target: T2, mouse FGFR3b-ecto.mmH (mouse, UniProt Q61851 21-801); assay: Biacore SPR, 25 C, mmh-tagged FGFR3
T2 construct: also called moFGFR3b (mmh); monomeric mouse FGFR3b; not shown: mmh tag
T2 sequence (Q61851 other isoform, or with tags, fused parts or gaps): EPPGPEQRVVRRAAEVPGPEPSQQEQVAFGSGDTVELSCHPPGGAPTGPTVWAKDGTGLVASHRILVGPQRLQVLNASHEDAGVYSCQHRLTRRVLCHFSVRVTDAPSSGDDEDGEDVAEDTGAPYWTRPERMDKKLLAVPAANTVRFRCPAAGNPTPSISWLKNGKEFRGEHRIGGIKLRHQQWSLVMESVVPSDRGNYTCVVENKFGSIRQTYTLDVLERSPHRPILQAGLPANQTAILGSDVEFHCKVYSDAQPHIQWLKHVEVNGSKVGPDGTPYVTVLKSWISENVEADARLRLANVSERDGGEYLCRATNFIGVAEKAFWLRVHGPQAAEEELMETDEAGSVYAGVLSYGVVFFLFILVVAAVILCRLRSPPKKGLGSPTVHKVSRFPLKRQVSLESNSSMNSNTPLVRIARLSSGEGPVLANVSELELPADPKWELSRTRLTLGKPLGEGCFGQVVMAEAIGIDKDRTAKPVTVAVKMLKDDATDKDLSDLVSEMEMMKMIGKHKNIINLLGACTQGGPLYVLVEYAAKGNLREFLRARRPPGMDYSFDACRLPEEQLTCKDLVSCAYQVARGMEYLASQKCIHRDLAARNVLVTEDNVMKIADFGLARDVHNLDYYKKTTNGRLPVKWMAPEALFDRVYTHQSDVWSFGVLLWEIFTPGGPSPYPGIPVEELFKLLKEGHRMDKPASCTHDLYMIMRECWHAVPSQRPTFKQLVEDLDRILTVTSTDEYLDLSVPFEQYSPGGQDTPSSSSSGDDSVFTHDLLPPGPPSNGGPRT

T1 sequence (P22607 other isoform, or with tags, fused parts or gaps): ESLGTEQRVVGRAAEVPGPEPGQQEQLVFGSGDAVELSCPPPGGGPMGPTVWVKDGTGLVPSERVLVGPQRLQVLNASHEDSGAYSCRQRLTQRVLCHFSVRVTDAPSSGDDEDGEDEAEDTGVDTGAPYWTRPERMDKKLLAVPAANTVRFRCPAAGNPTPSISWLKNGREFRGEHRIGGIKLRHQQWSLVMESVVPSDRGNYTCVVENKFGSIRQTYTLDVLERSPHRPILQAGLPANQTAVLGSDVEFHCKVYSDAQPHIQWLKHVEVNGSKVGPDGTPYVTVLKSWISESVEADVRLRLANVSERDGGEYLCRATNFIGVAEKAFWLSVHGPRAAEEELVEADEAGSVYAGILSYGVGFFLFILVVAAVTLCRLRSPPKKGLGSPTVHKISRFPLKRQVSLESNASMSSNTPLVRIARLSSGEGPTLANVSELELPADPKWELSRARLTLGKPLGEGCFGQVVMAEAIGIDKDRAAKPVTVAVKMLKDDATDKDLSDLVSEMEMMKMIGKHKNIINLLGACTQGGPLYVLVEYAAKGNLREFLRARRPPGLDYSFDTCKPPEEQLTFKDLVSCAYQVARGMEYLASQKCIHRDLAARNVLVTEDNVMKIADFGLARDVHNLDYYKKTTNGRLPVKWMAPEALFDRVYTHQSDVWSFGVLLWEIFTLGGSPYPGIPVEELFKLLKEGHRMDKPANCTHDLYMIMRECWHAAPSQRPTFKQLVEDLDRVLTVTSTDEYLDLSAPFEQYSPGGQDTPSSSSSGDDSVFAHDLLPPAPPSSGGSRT

B1: H4H30063P (antibody, V domains shown)
VH: QVQLQESGPGLVKPSETLSLTCTVSGDSINSYFWSWIRQLPGKELEWIGHIYSSGSTRYNPSLQSRVTISIDTSKNQFSLKLSSVTAADTAVYYCARGASAVDYWGQGTLVTVSS
VL: EIVLTQSPGTLSLSPGERATLSCRTSQSISSGYLAWYQQKPGQAPRLLIYGASRRATGIPDRFSGSGSGTDFTLTISRLEPEDFVVYYCQQYGSSPYTFGQGTKLEIKR
Human FGFR3b-ecto.mmH
  Kd: 1.8 nM
Mouse FGFR3b-ecto.mmH
  Kd: 1.27 nM
